For five molecules, koff and Kd results are on record in article PMC12578645 (2025).

The labels stand for the following.
B1: D48 Fab (Fab, V domains shown)
VH: EVQLVETGGGVVRPGRSLRLSCTTSGFSFSGSAMHWVRQAPGKGLEWVAVISHDGNIIQYHDSVKGRFTISRDNSKNVLLLQMNSLRVDDTAMYYCARDVWLLPATISYAFDFWGQGTMVTVSS
VL: VIWMTQSPPSLSASIGDTVTITCRASQGISNSIAWYQRRPGKAPELLVYAAYRLQSGVPSRLSGSGSGAEYTLTIKNMQPEDFATYYCQQYYDNPLTFGGGTKVEIK
B2: D48 Fab (Fab, V domains shown)
VH: B1 VH
VL: B1 VL
modifications: engineered disulfide A240C-E607C; N-linked glycans (densities seen at 141, 398, 430 and 674)
B3: PILRα_G78 ectodomain (paired immunoglobulin-like type 2 receptor alpha, HSV-1 gB co-receptor, with R78G) (receptor)
chain: QPSGSTGSGPSYLYGVTQPKHLSASMGGSVEIPFSFYYPWELATAPDVRISWRRGHFHGQSFYSTRPPSIHKDYVNRLFLNWTEGQKSGFLRISNLQKQDQSVYFCRVELDTRSSGRQQWQSIEGTKLSITQAVTTTTQRPSSMTTTWRLSSTTTTTGLRVTQGKRRSDSWHISLETA
B4: PILRα_G78 ectodomain (paired immunoglobulin-like type 2 receptor alpha, HSV-1 gB co-receptor, with R78G) (receptor)
chain: B3 chain
modifications: engineered disulfide A240C-E607C; N-linked glycans (densities seen at 141, 398, 430 and 674)
B5: gB-Ecto.H516P.L531E (HSV-1 glycoprotein B ectodomain stabilized in the prefusion conformation) (domain or fragment)
chain: not shown
modifications: N-linked glycans (densities seen at 141, 398, 430 and 674)

Some targets named below: SS10; SS55; DL16.
Common to all, as to experiment: SPR
Assay [1] concerns the target T1, gB-Ecto.H516P (HSV-1 glycoprotein B ectodomain with H516P and an appended foldon; postfusion) (HSV-1 KOS strain, UniProt P06437 31-728, H516P, N-linked glycans (densities seen at 141, 398, 430 and 674)).
Assay [2] addresses B5.
Assay [3] deals with T1, gB-Ecto.H516P (HSV-1 glycoprotein B …). This is another data set of the same source.
In assay [4] the target is B5. This is another data set of the same source.
Assay [5] deals with T2, gB-Ecto.H516P.L531E.DS (HSV-1 glycoprotein B ectodomain stabilized in the prefusion conformation with the … (HSV-1 KOS strain, UniProt P06437 31-728, H516P | L531E | A240C | E607C)).
Assay [6] deals with T2, gB-Ecto.H516P.L531E.DS (HSV-1 …). This is another data set of the same source.

For B1, the results for the off-rate constant (koff) in assay [1] and in assay [2] were 4.06e-05 s⁻¹ and 1.08e-05 s⁻¹, respectively. For the same molecule, the Kd in [3] worked out at 0.252 nM; in assay [4], 0.0272 nM.

As to B2, the koff in [5] is 2.18e-05 s⁻¹. In addition, in [6], binding was characterised by a dissociation constant (Kd) of 0.0827 nM.

For the molecule B3, the results for the dissociation rate constant (koff) in assay [1] and in [2] were 0.66 s⁻¹ and 0.34 s⁻¹, respectively. Further, the results for the Kd in assay [3] and in assay [4] were 2000 nM and 1600 nM, respectively.

In assay [5], B4 had a dissociation rate constant (koff) of 0.33 s⁻¹. Further, the equilibrium dissociation constant (Kd) in assay [6] was determined as 1800 nM.

Consider B5, for which the Kd was 1.03 nM with SS10, 7.47 nM in the assay with SS55 and 28.2 nM in the assay with DL16. Also, the off-rate (koff) came out at 5.6e-05 s⁻¹ in the assay with SS10, 0.000208 s⁻¹ in the assay with SS55 and 0.0013 s⁻¹ with DL16.
